In assay [1] the target is T1, human VEGF (hVEGF, R&D Systems, cat: 293-VE) (human, UniProt P15692-4 27-191).
T1 construct: Bought protein; also called vascular endothelial growth factor
The assay is described as follows: SPR (Biacore T200), hVEGF immobilised on CM5, antibody as analyte, bivalent binding model. As for the experimental part: (§1) Specifically, Biacore T200 was used in SPR analysis and HBS-EP (10 mM HEPES, pH7.4, 150 mM NaCl, 3 mM EDTA, […] surfactant P20) was used as a running buffer. Surface preparation was done by using a surface preparation target immobilization tool of a wizard program (condition: 25° C., 5 μl/min). Ligands (hVEGF and hDLL4) were diluted in 10 mM sodium acetate buffer (pH 4.5) to final concentrations of 5 μg/ml and 4 μg/ml, respectively, and then immobilized to the surface of CM5 chip by a target immobilization level for each test group. In the immobilization process, two flow cells were included as one set wherein the first and third flow cells were set as a blank, the second flow cell has hVEGF immobilized to the surface thereof, and the fourth flow cell was set as hDLL4 in the present experiment. The first and third flow cells acted as a reference to account for experimental variability due to nonspecific bindings and buffer effects, and in the analysis, subtracted RU values (Fc2−Fc1, and Fc4−Fc3) were used as experimental results. The Avastin-DLL4 BsAb dual-targeting antibody that binds to hVEGF and hDLL4 was diluted in a running buffer to a final molar concentration of 100 nM, serially diluted 1/2 times, and each of the 5 dilutions was analyzed. The sample to be analyzed was prepared to have high purity and high concentration, enough to be diluted more than 100 times at minimum, thereby minimizing buffer effect. All analysis was done by using a wizard program, screening duplicates for each sample and a regeneration step was included in between each analysis step, so that the standard of experiment remains constant.
(§2) The experimental results were analyzed by Biaevaluation software version 4.0. At this time, to determine the RU values (Fc2−Fc1 and Fc4−Fc3), the baseline was set to zero, the value measured at a buffer injection part (analyte, 0 nM) was subtracted from a whole sensorgram. Then, the resulting RU value was analyzed by a Bivalent binding model to determine a binding affinity. The factors to be analyzed include kₐ (M⁻¹s⁻¹), kd (s⁻¹), and KD (M).

In assay [2] the target is T2, human DLL4 protein (R&D Systems, Cat: 1506-D4/CF), extracellular domain, residues 27 to 524, C-terminal … (human, UniProt Q9NR61 27-524).
T2 construct: range 27-524; Bought protein; also called rhDLL4; hDLL4
T2 sequence (Q9NR61 other isoform, or with tags, fused parts or gaps limits assumed): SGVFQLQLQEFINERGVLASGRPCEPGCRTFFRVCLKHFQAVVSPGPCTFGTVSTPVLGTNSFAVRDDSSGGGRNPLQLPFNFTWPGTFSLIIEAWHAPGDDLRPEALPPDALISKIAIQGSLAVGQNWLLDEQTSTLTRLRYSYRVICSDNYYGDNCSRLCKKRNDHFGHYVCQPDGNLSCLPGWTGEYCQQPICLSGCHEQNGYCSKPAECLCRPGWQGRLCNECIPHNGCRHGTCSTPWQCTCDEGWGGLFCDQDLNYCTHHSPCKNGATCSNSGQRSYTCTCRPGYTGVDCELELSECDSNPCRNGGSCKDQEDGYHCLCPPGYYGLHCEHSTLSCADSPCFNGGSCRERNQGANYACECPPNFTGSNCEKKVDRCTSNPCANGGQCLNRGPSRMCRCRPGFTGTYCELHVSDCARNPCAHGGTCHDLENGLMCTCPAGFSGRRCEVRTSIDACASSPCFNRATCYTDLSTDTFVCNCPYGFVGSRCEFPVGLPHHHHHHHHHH
In words: SPR (Biacore T200), hDLL4 immobilised on CM5, antibody as analyte, bivalent binding model. As to the method:
as §1, §2

The target of assay [3] is T1, human VEGF (hVEGF, R&D Systems, cat: …). In words: ELISA on plate-coated hVEGF, HRP anti-Fab detection, absorbance at 450 nm; the value is column C (midpoint) of the printed 4-P fit; preparation labelled (GS pool) cell line; the Conc axis prints no unit, nM is taken from paragraph 139. As to the method: (§3) The binding affinities of the dual-targeting proteins for DLL4 and VEGF were assessed using an ELISA-based solution competition assay. Specifically, a 96-well plate (Nunc-Immuno Plate, NUNC, Rochester, N.Y.) was coated with 50 ng/ml of hVEGF (R&D Systems, cat: 293-VE) and 200 ng/ml of rhDLL4 (R&D Systems, cat: 1506-D4/CF) in an amount of 100 μl per well at 4° C. overnight, and non-specific binding sites were blocked with BSA (bovine serum albumin) for 2 hours. The antibody on the 96-well microtiter plate was diluted 1/5-fold from 128 nM and 64 nM, and 100 μl of each of the dilutions was added to each well of the plate coated with hDLL4 and hVEGF proteins. Then, the plate was incubated for 2 hours, and washed five times with 0.05% tween 20-containing PBS. In order to detect the plate-bound antibody, an HRP-conjugated anti-Fab antibody (Pierce, cat: 31414)) was diluted at a ratio of 1:40,000, transferred to the washed 96-well microtiter plate, and then allowed to react at 37° C. for 1 hour. After the reaction, color development was performed using a colorimetric substrate (3,3′,5,5′-tetramethylbenzidine; Sigma-Aldrich). The enzymatic reaction was stopped using 0.5 mol/l of sulfuric acid. The absorbance at 450 nm was measured using SpectraMax 190 (molecular device).

Assay [4] has the same target. The assay is described as follows: ELISA on plate-coated hVEGF, HRP anti-Fab detection, absorbance at 450 nm; the value is column C (midpoint) of the printed 4-P fit y = (A - D)/(1 + (x/C)^B) + D; preparation labelled Transient; the Conc axis prints no unit, nM is taken from paragraph 139 (dilutions from 128 nM and 64 nM). As to the method:
as §3

Assay [5] addresses T2, human DLL4 protein (R&D Systems, Cat: …). The assay is described as follows: ELISA on plate-coated rhDLL4, HRP anti-Fab detection, absorbance at 450 nm; the value is column C (midpoint) of the printed 4-P fit; preparation labelled Transient; the Conc axis prints no unit, nM is taken from paragraph 139. As for the experimental part: as §3
For assay [6] the target is unchanged. In words: ELISA on plate-coated rhDLL4, HRP anti-Fab detection, absorbance at 450 nm; the value is column C (midpoint) of the printed 4-P fit; preparation labelled (GS pool) cell line; the Conc axis prints no unit, nM is taken from paragraph 139. As for the experimental part: as §3
The target is the same in assay [7]. In words: competition ELISA: antibody premixed with human DLL4-His (600 ng/ml), transferred to plate-coated hNotch-1-hFc, bound DLL4 detected with anti-His HRP. As to the method:
The neutralization effect of the Avastin-DLL4 BsAb dual-targeting antibody was assessed using an ELISA-based solution competition assay. Specifically, each well of a 96-well microtiter plate (Nunc-Immuno Plate, NUNC, Rochester, N.Y.) was coated with 100 μl of 500 ng/ml of hNotch-1-hFc protein (R&D Systems) (diluted in PBS) at 4° C. overnight, and then treated with BSA for 2 hours to block non-specific binding sites.
The Avastin-DLL4 BsAb dual-targeting antibody (purified protein) on the 96-well microtiter plate was premixed with serial dilutions of antigen protein (human DLL4-His, 600 ng/ml) at an […] concentration ranging from 0 nM to 140 nM. The antigen/antibody mixture was incubated for 30 minutes, and then transferred to a microtiter plate precoated with the DLL4 receptor hNotch-1 protein (50 ng/well) in order to measure free […]. Then, the plate was incubated for 2 hours and washed five times with 0.05% tween 20-containing PBS. In order to detect the DLL4 antigen bound to the plate, an HRP-conjugated His […] antibody reagent (Roche applied science) was diluted at a ratio of 1:800, and the washed microtiter plate was treated with the diluted antibody reagent, and then allowed to react at 37° C. for 1 hour. […]

The target of assay [8] is T3, human DLL4 (27-251)-Fc alanine substitution mutant at position 64 (histidine) (human, UniProt Q9NR61 27-251).
T3 construct: range 27-251; also called amino acid mutant at position 64; not shown: Fc protein
T3 sequence (Q9NR61 other isoform, or with tags, fused parts or gaps mutant limits assumed): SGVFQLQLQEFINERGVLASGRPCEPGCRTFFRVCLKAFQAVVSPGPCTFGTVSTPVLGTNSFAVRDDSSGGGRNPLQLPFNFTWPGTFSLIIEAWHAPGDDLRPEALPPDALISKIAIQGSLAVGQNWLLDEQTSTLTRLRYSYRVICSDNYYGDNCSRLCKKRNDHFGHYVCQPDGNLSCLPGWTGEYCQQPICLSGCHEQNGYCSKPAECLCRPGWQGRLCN
The assay is described as follows: Western blot of mutant DLL4 (27-251)-Fc, detected with HRP anti-human Fab. As for the experimental part:
The mutant expression media incubated for 4 days were centrifuged at 1000 rpm at room temperature for 10 minutes to remove the suspended material, and then filtered through a 0.45-μm syringe. For Western blotting analysis, the level of the protein in the mutant expression media were quantified using Octet® system (ForteBio) so that a uniform amount of the mutant would be loaded on SDS gel. Next, 20 μl of each of the mutant expression media was loaded on each of two Novex 4-12% Bis/Tris gels, and subjected to gel electrophoresis using MOPS buffer at 140 V for 50 minutes. As a control, a protein encoding a deletion fragment (amino acid residues 27 to 251) of the extracellular domain of wild-type DLL4 was used. After completion of the electrophoresis, the protein band was transferred to a polyvinylidene difluoride membrane. A total of two processes were performed.

T1 sequence (P15692 other isoform, or with tags, fused parts or gaps limits assumed): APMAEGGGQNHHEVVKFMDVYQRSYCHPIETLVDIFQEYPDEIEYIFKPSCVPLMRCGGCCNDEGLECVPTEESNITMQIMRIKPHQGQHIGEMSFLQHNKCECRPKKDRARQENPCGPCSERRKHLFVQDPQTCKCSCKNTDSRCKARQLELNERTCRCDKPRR

B1: Avastin-DLL4 BsAb dual-targeting antibody (bispecific antibody)
heavy: EVQLVESGGGLVQPGGSLRLSCAASGYTFTNYGMNWVRQAPGKGLEWVGWINTYTGEPTYAADFKRRFTFSLDTSKSTAYLQMNSLRAEDTAVYYCAKYPHYYGSSHWYFDVWGQGTLVTVSSASTKGPSVFPLAPSSKSTSGGTAALGCLVKDVFPEPVTVSWNSGALTSGVHTFPAVLQSSGLYSLSSVVTVPSSSLGTQTYICNVNHKPSNTKVDKKVEPKSCDKTHTCPPCPAPELLGGPSYFLFPPKPKDTLMISRTPEVTCVVVDVSHEDPEVKFNWYVDGVEVHNAKTKPREEQYNSTYRVVSVLTVLHQDWLNGKEYKCKVSNKALPAPIEKTISKAKGQPREPQVYTLPPSRHMTKNQVSLTCLVKGFYPSDIAVEWESNGQPENNYKTTPPVLDSDGSFFLYSKLTVDKSRWQQGNVFSCSVMHEALHNHYTQKSLSLSPGKGGGGSGGGGSGGGGSQSVLTQPPSASGTPGQRVTISCTGSSSNIGSNDVTWYQQLPGTAPKLLIYADSKRPSGVPDRFSGSKSGTSASLAISGLRSEDEADYYCGTWDYSLSAYVFGCGTKLTVLGGGGSGGGGSGGGGSGGGGSEVQLLESGGGLVQPGGSLRLSCAASGFTFSDYAMSWVRQAPGKCLEWVSWIYSGSGNKYYADSVKGRFTISRDNSKNTLYLQMNSLRAEDTAVYYCARADWPFDYWGQGTLVTVSS
light: not shown
notes: made in CHO cells; also called VEGF-DLL4 BsAb; dual-targeting protein
For the molecule B1, the results for the Kd in assay [1] and in assay [2] were 0.126 nM and 30.2 nM, respectively. The figures for the koff in assay [1] and in assay [2] were 1.68e-06 s⁻¹ and 0.000587 s⁻¹, respectively. For the same molecule, the kon in assay [1] amounted to 13400 M⁻¹ s⁻¹; in assay [2] it was 19400 M⁻¹ s⁻¹. Also, the EC50 in assay [3] was determined as 0.43 nM; in assay [4], 0.337 nM; in assay [5], 0.264 nM; in assay [6], 0.261 nM. In addition, in assay [7], the IC50 was 1.12 nM.

B2: MLCK-2 anti-DLL4 antibody (antibody, V domains shown)
VH: EVQLLESGGGLVQPGGSLRLSCAASGFTFSDYAMSWVRQAPGKCLEWVSWIYSGSGNKYYADSVKGRFTISRDNSKNTLYLQMNSLRAEDTAVYYCARADWPFDYWGQGTLVTVSS
VL: QSVLTQPPSASGTPGQRVTISCTGSSSNIGSNDVTWYQQLPGTAPKLLIYADSKRPSGVPDRFSGSKSGTSASLAISGLRSEDEADYYCGTWDYSLSAYVFGCGTKLTVL
notes: also called MLCK2 antibody
Take B2: in assay [8], the binding result is recorded as “no binding (tested: 1 µg/mL)”.

Source of the values: US20160159929A1 (ABLBIO, published 2016).
